For this experiment, the target named is ApoER2 of primary neuronal culture from embryonic day 17 mice (mouse) (UniProt Q924X6). Description: cell-based or functional assay.
ApoER2 of primary neuronal culture from embryonic day 17 mice (mouse), sequence (Q924X6 29-996): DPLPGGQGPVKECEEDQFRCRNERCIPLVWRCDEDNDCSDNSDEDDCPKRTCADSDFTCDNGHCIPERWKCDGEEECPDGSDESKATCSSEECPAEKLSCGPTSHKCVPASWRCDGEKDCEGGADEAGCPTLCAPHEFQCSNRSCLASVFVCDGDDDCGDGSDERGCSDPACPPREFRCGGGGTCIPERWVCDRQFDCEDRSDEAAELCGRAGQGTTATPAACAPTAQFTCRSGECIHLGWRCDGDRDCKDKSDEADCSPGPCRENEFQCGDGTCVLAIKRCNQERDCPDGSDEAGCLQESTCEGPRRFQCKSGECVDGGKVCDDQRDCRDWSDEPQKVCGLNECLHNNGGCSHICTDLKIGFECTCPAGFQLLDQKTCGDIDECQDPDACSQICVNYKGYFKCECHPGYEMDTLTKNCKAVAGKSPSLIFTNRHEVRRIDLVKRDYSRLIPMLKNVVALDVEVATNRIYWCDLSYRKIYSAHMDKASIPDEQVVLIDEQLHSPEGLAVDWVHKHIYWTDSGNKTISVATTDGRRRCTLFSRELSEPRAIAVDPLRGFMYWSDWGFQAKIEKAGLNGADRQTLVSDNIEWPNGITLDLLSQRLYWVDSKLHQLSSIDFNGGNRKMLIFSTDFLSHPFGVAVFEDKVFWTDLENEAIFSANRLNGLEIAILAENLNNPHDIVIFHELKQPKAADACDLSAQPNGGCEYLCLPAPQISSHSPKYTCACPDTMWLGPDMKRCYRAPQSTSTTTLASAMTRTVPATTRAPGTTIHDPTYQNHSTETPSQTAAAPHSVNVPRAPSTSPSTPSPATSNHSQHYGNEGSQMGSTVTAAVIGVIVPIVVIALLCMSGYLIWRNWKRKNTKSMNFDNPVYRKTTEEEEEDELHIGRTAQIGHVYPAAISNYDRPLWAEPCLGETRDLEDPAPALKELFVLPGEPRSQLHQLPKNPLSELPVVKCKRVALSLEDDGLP

For the substance “Recombinant, human Reelin protein, R3 fragment conjugated to the R6 fragment (Reelin protein fragment R3+R6) (from UniProt P78509 1-2618) (ligand)”, the levels of phosphorylated ERK to total ERK, primary neurons, 60 minutes (ratio pERK/total ERK) worked out at 2.
The result for “full length Reelin consisting of the full length sequence and all of the naturally occurring fragments (ligand)” reads 2.5.
The result for “mouse Reelin N terminal through repeat R2 (from UniProt Q60841 27-1221) (ligand)” reads 0.53; that for “Recombinant, human Reelin protein, R3 fragment conjugated to the R5 fragment (Reelin protein fragment R3+R5) (from UniProt P78509 1-2270) (ligand)”, 2.22.
Then “mouse Reelin repeats R3 through 6 (from UniProt Q60841 1222-2661) (ligand)”, with 1.15.

The values above are taken from patent US20190169246A1.
